Experimental data: publication PMC7792996, “Crystal structure of death-associated protein kinase 1 in complex with the dietary compound resveratrol” (IUCrJ, 2021)

Substrate: Nc1ncnc2c1ncn2[C@@H]1O[C@H](COP(=O)(O)OP(=O)(O)OP(=O)(O)O)[C@@H](O)[C@H]1O
Test: intrinsic ATPase kinetics by malachite green assay (Km)
Type: biochemical, Homo sapiens
Settings: Mg2+ ([…] MgCl2 in the assay) ATP-binding site

B1: Death-associated protein kinase 1 (DAPK1) (Homo sapiens) (protein)
chain: MTVFRQENVDDYYDTGEELGSGQFAVVKKCREKSTGLQYAAKFIKKRRTKSSRRGVSREDIEREVSILKEIQHPNVITLHEVYENKTDVILILELVAGGELFDFLAEKESLTEEEATEFLKQILNGVYYLHSLQIAHFDLKPENIMLLDRNVPKPRIKIIDFGLAHKIDFGNEFKNIFGTPEFVAPEIVNYEPLGLEADMWSIGVITYILLSGASPFLGDTKQETLANVSAVNYEFEDEYFSNTSALAKDFIRRLLVKDPKKRMTIQDSLQHPWIKPKDTQQALS
notes: catalytic domain, residues 1–285
  Km: 21 ± 2.4 µM
  kcat: 0.012 ± 8.5e-05 s⁻¹
  kcat/Km: 733 ± 71.7 M⁻¹ s⁻¹
